From PMC2174279 (The Journal of Cell Biology, 2000)

B1: Myo5p-SH3-AD (1020-1219) (domain or fragment)
chain: NKAATRRSVPNPASTLTASQSNARPSPPTAATRATPAATPAAAAMGSGRQANIPPPPPPPPPSSKPKEPMFEAAYDFPGSGSPSELPLKKGDVIYITREEPSGWSLGKLLDGSKEGWVPTAYMKPHSGNNNIPTPPQNRDVPKPVLNSVQHDNTSANVIPAAAQASLGDGLANALAARANKMRLESDDEEANEDEEEDDW
B2: SH3 domain of Sho1p (176-367) (domain or fragment)
chain: not shown

Legend:
Assay in all cases: two-hybrid
[1] = biological target: T1, peptide PRP1 (QPDHPPPSPP), LexA bait
T1 peptide: QPDHPPPSPP

[2] = biological target: T2, peptide PRP2 (PPPYQAPHPP), LexA bait
T2 peptide: PPPYQAPHPP

[3] = biological target: T3, peptide PBS2 (NKPLPPLPVA), LexA bait (S. cerevisiae)
T3 peptide: NKPLPPLPVA

Row | Binder | LacZ expression (two-hybrid) [1] | LacZ expression (two-hybrid) [2] | LacZ expression (two-hybrid) [3]
1 | B1 | 406 Miller units | 255 Miller units | 
2 | B2 |  |  | 190 Miller units
